In assay [1] the target is cynomolgus monkey GPRC5D (cynomolgus monkey). As to the kind of experiment: FACS on cynomolgus GPRC5D-CHOK1 cells.
Assay [2] addresses cynomolgus monkey BCMA (on cells) (cynomolgus monkey). In words: FACS on cynomolgus BCMA-CHOK1 cells.
Assay [3] deals with cynomolgus monkey GPRC5D (cynomolgus monkey). As to the kind of experiment: FACS on cynomolgus GPRC5D-CHOK1 cells. This is another data set of the same source.
The target in assay [4] is human GPRC5D (human) (UniProt Q9NZD1). As to the kind of experiment: FACS on human GPRC5D-CHOK1 cells.
Sequence of human GPRC5D (human) (Q9NZD1 whole entry): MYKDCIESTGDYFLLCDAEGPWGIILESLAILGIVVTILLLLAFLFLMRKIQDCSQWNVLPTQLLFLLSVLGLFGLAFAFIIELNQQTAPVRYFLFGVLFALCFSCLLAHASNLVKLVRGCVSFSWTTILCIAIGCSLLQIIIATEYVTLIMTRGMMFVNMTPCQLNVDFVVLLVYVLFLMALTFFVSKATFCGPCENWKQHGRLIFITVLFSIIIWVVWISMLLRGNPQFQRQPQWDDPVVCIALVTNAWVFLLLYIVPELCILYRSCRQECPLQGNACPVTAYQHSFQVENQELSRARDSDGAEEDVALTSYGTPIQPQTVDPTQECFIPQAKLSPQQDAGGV
Assay [5] concerns the target human BCMA (on cells) (human) (UniProt Q02223). In words: FACS on human BCMA-CHOK1 cells.
For assay [6] the target is unchanged. As to the kind of experiment: FACS on human BCMA-CHOK1 cells. This is another data set of the same source.
For assay [7], the target named is human GPRC5D (human) (UniProt Q9NZD1). In words: FACS on NCI-H929 cells (GPRC5D-expressing).
The target in assay [8] is cynomolgus monkey BCMA (on cells) (cynomolgus monkey). In words: FACS on cynomolgus BCMA-CHOK1 cells. The source holds these as a separate data set.
Sequence of cynomolgus monkey BCMA (on cells) (cynomolgus monkey) (Q02223 other isoform, or with tags, fused parts or gaps): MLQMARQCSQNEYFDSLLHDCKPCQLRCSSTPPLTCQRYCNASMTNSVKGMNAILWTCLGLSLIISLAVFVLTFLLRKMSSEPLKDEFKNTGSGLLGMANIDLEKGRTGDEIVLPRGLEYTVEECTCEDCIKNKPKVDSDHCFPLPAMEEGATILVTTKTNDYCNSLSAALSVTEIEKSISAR
Assay [9] deals with cynomolgus monkey CD3 (on cyno PBMCs) (cynomolgus monkey) (UniProt Q95LI5). In words: FACS on cyno PBMCs.
Sequence of cynomolgus monkey CD3 (on cyno PBMCs) (cynomolgus monkey) (Q95LI5 22-198): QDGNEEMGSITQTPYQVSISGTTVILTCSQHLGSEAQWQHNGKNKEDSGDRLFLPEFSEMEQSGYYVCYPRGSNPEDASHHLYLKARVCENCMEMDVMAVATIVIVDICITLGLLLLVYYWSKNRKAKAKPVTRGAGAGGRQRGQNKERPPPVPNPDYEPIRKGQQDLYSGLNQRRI
For assay [10], the target named is human BCMA (on cells) (human) (UniProt Q02223). As to the kind of experiment: FACS on NCI-H929 cells (express BCMA and GPRC5D).
Sequence of human BCMA (on cells) (human) (Q02223 whole entry): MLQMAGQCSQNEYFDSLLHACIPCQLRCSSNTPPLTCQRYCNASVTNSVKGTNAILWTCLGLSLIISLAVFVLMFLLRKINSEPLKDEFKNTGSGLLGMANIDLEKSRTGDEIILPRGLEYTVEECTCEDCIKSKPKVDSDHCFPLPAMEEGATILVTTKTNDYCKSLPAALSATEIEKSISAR
The target of assay [11] is soluble BCMA. In words: cell-based or functional assay.
In assay [12] the target is human CD3 (on Jurkat cells and human PBMCs) (human) (UniProt P07766). In words: FACS on human PBMCs.
Sequence of human CD3 (on Jurkat cells and human PBMCs) (human) (P07766 23-207): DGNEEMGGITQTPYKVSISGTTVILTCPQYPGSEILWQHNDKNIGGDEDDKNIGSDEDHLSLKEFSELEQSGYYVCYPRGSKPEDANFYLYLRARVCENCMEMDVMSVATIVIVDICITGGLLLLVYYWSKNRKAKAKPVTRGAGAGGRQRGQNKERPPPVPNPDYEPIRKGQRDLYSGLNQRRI
The target is the same in assay [13]. As to the kind of experiment: FACS on Jurkat cells.
Assay [14] has as its target human BCMA (on cells) (human) (UniProt Q02223). In words: FACS on RPMI8226 cells (express BCMA and GPRC5D).
Assay [15] has as its target NCI-H929 tumor cells expressing the dual targets BCMA and GPRC5D. In words: FACS on NCI-H929 cells (express BCMA and GPRC5D).
Assay [16] has as its target RPMI8226 tumor cells expressing the dual targets BCMA and GPRC5D. As to the kind of experiment: FACS on RPMI8226 cells (express BCMA and GPRC5D).

Read-outs that look alike come from different tables or passages of the source.

Sequence of cynomolgus monkey GPRC5D (cynomolgus monkey) (Q9NZD1 other isoform, or with tags, fused parts or gaps): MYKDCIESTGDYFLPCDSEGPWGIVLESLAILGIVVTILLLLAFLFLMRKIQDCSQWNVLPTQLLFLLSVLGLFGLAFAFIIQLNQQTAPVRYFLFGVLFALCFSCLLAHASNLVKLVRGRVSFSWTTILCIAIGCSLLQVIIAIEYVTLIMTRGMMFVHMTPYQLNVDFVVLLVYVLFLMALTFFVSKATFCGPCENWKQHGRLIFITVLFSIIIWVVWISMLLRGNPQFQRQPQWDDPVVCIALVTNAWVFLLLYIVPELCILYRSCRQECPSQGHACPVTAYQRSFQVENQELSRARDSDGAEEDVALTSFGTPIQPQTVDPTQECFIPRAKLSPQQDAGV

Consider IgG1 AA (antibody), for which the Top MFI was 1840 in [1]; 382 in [2]; 85 in [3]; 36 in assay [4]; 232 in assay [5]; 89.1 in assay [6]. The Top MFI in assay [7] came out at 178; in [8], 82.6.

Consider “Teclistamab analogue (BCMA/CD3) (bispecific antibody)”, for which the Top MFI in [9] worked out at 2060; in assay [10] it was 669; in assay [12], 672; in [4] it was 160; in assay [6], 2280; in assay [13], 825. Moreover, the Top MFI came to 1770 in assay [8] and 169 in assay [14]. Further, in assay [11], the Fold change of TDCC EC50 on NCI-H929 cells in the presence of 2500 ng/ml soluble BCMA was 25 fold. The Ratio (EC50) of TDCC on NCI-H929 cells, 2.5 ug/ml against 0 ug/ml soluble BCMA in assay [11] worked out at 21 fold. Moreover, the fold change of the TDCC EC50 on NCI-H929 cells in the presence of 2500 ng/ml soluble BCMA in assay [11] is 25 fold.

Consider hIgG1 LALA isotype (antibody), for which the Top MFI came to 93.3 in assay [9]; 104 in assay [15]; 96.1 in [12]; 100 in [4]; 119 in assay [6]; 77.6 in assay [13]. Further, the Top MFI in assay [16] turned out to be 112.
